Test results: the supplement of paper PMC10724198
± gives the standard deviation of the averaged measurements.

Tested on: Saccharomyces cerevisiae
Experiment: protein stability index of tFT-peptide fusion (C-terminal peptide) (PSI (0-1 scale)); higher = more stable (slower turnover)
Settings: genetic background: cdc34-1; temperature: 37 C
Protocol: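 MPS profiling in S. cerevisiae of the tFT-X12 degron library: putative degron peptides plus stable controls, 12 aa, fused to the C-terminus of a sfGFP-mCherry timer. Cells are FACS-sorted into 8 mCherry/sfGFP bins and deep-sequenced. PSI runs from 0 (unstable) to 1 (stable). Backgrounds are wild type, das1Δ and doa10Δ at 30 °C, and wild type, das1Δ, cdc34-1 and cdc53-1 at 37 °C; 2-3 technical replicates each.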
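Further: PSI is a weighted mean of sequencing reads over stability bins, variants kept only with over 10 reads, mCherry proximal and sfGFP distal, peptide attached via GGGS linker.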

Sequence	protein stability index
PTLPASLHSIYP	0.654 ± 0.03
PTYSCSIKIQAH	0.539 ± 0.037
PWGSHLYYVVCI	0.168 ± 0.026
PWWDALLRARVC	0.429 ± 0.033
PYVHPFRCYWVL	0.589 ± 0.032
QCSPGLPHAQGL	0.692 ± 0.025
QGPHISQYRTHR	0.67 ± 0.022
QHRAIKIEIKIN	0.439 ± 0.024
QVLISLYVHGYF	0.551 ± 0.053
RCCWWNAQAVWR	0.725 ± 0.043
RCLHTSVFLIFP	0.484 ± 0.012
RDASLLFHFFVC	0.507 ± 0.059
REGDLLKFKMRP	0.6854 ± 0.0054
RFFVRRVRVAVL	0.786 ± 0.036
RFICMMYLVYLC	0.142 ± 0.022
RFLPYLPTPLSP	0.664 ± 0.026
RGAVLLPSLWVV	0.659 ± 0.025
RGCLVHSGFFIV	0.65 ± 0.034
RGGVLYVSIRCK	0.282 ± 0.019
RIHRRLIKNKRV	0.649 ± 0.021
RIVSGVVLLVFV	0.404 ± 0.0079
RKGQNKKRNKIY	0.7504 ± 0.0028
RKWLFFRSWRYV	0.476 ± 0.047
RLFIIYLLNIQG	0.37 ± 0.052
RLFSPPVLATPS	0.654 ± 0.012
RLIAVAGVVVVA	0.541 ± 0.032

Sequence	protein stability index
RLLSIFKILHVG	0.526 ± 0.0063
RLRHPPRLSTLC	0.635 ± 0.025
RLSTPFTVNHFI	0.613 ± 0.031
RLVPFMAVRVLF	0.571 ± 0.034
RRVRVVCVIVAA	0.286 ± 0.0078
RSFNVGLELLVW	0.382 ± 0.026
RTWFTYMSIPVW	0.196 ± 0.012
RVFGWIEVEVEG	0.5179 ± 0.001
RVFRLDRRLQVV	0.55 ± 0.02
RVGSSLIVVYCV	0.452 ± 0.024
RVLCLVSSLTLF	0.549 ± 0.013
RWTKMNNLIIEF	0.693 ± 0.0083
RWVFAGVGLFVG	0.691 ± 0.071
SCFDRQIFVPVC	0.358 ± 0.0078
SDLQVMKLRSVC	0.717 ± 0.048
SFFYFVFYYLSF	0.161 ± 0.042
SFIFFVSCFFIF	0.274 ± 0.043
SFLRVRSLISCS	0.252 ± 0.026
SFSRLWSLFRCL	0.462 ± 0.041
SFVCFSYYIVNI	0.453 ± 0.021
SFVLLSSFLVFV	0.249 ± 0.016
SGFLNVGYLWVC	0.5625 ± 0.00014
SIFLCRLQNLLI	0.637 ± 0.0071
SILVSIFILAMQ	0.205 ± 0.029
SIRVIVAVRNIS	0.621 ± 0.033
SISVQCSMLRVL	0.456 ± 0.036

Sequence	protein stability index
SLARLRRICFNT	0.632 ± 0.042
SLRPFFPPLPRP	0.631 ± 0.06
SLVPSIFLFRIF	0.566 ± 0.042
SLVVMGSLWLRI	0.275 ± 0.15
SMGVLITYLVQV	0.399 ± 0.021
SMPWFWFVRGIG	0.497 ± 0.041
SNFDVRRLLVIQ	0.616 ± 0.073
SPSTPQALSNFS	0.679 ± 0.0097
SPTIFLPLFLTS	0.426 ± 0.026
SRARIRLPRILS	0.648 ± 0.033
SSLTFTFAILLY	0.19 ± 0.026
STLPACNCLKLL	0.663 ± 0.015
STNMDNRIRTLA	0.659 ± 0.011
SVIVSSFFLWVF	0.381 ± 0.051
SVLVWFLVFLVW	0.209 ± 0.0046
SVVYCRMRVHFV	0.403 ± 0.024
SWGEQDRLTGYI	0.715 ± 0.029
SWMFKLCIQWNV	0.5147 ± 0.0019
SWSLRLSTIFSV	0.609 ± 0.11
SYFASLLDLFTA	0.727 ± 0.062
TDSSWEVSLMVG	0.679 ± 0.051
TDVLLLQLLISV	0.202 ± 0.021
TGPLVHLLCCCV	0.354 ± 0.011
TKKGQTRPSRTD	0.634 ± 0.0078
TLKRCFRWCRTT	0.492 ± 0.095
TLSRTPVSPSAP	0.686 ± 0.051

Same assay, conditions: genetic background: cdc53-1; temperature: 37 C

Sequence	protein stability index
PTLPASLHSIYP	0.72 ± 0.031
PTYSCSIKIQAH	0.537 ± 0.037
PWGSHLYYVVCI	0.228 ± 0.011
PWWDALLRARVC	0.6 ± 0.054
PYVHPFRCYWVL	0.717 ± 0.027
QCSPGLPHAQGL	0.71 ± 0.015
QGPHISQYRTHR	0.7226 ± 0.0053
QHRAIKIEIKIN	0.666 ± 0.018
QVLISLYVHGYF	0.5374 ± 0.0037
RCCWWNAQAVWR	0.7494 ± 0.0045
RCLHTSVFLIFP	0.488 ± 0.038
RDASLLFHFFVC	0.727 ± 0.014
REGDLLKFKMRP	0.727 ± 0.008
RFFVRRVRVAVL	0.817 ± 0.019
RFICMMYLVYLC	0.188 ± 0.023
RFLPYLPTPLSP	0.7203 ± 0.0043
RGAVLLPSLWVV	0.7044 ± 0.0028
RGCLVHSGFFIV	0.683 ± 0.011
RGGVLYVSIRCK	0.335 ± 0.0034
RIHRRLIKNKRV	0.7 ± 0.02
RIVSGVVLLVFV	0.469 ± 0.0074
RKGQNKKRNKIY	0.767 ± 0.019
RKWLFFRSWRYV	0.69 ± 0.012
RLFIIYLLNIQG	0.5289 ± 0.0034
RLFSPPVLATPS	0.679 ± 0.025
RLIAVAGVVVVA	0.5509 ± 0.0042

Sequence	protein stability index
RLLSIFKILHVG	0.6593 ± 0.0037
RLRHPPRLSTLC	0.743 ± 0.00093
RLSTPFTVNHFI	0.732 ± 0.035
RLVPFMAVRVLF	0.6204 ± 0.0016
RRVRVVCVIVAA	0.373 ± 0.009
RSFNVGLELLVW	0.395 ± 0.035
RTWFTYMSIPVW	0.204 ± 0.069
RVFGWIEVEVEG	0.565 ± 0.019
RVFRLDRRLQVV	0.633 ± 0.041
RVGSSLIVVYCV	0.461 ± 0.017
RVLCLVSSLTLF	0.592 ± 0.0061
RWTKMNNLIIEF	0.744 ± 0.0087
RWVFAGVGLFVG	0.732 ± 0.016
SCFDRQIFVPVC	0.3925 ± 0.001
SDLQVMKLRSVC	0.742 ± 0.045
SFFYFVFYYLSF	0.17 ± 0.019
SFIFFVSCFFIF	0.378 ± 0.011
SFLRVRSLISCS	0.257 ± 0.035
SFSRLWSLFRCL	0.68 ± 0.026
SFVCFSYYIVNI	0.482 ± 0.005
SFVLLSSFLVFV	0.272 ± 0.042
SGFLNVGYLWVC	0.635 ± 0.0083
SIFLCRLQNLLI	0.742 ± 0.023
SILVSIFILAMQ	0.311 ± 0.0043
SIRVIVAVRNIS	0.648 ± 0.041
SISVQCSMLRVL	0.47 ± 0.0037

Sequence	protein stability index
SLARLRRICFNT	0.685 ± 0.0072
SLRPFFPPLPRP	0.729 ± 0.0088
SLVPSIFLFRIF	0.613 ± 0.0084
SLVVMGSLWLRI	0.162 ± 0.093
SMGVLITYLVQV	0.461 ± 0.012
SMPWFWFVRGIG	0.531 ± 0.0014
SNFDVRRLLVIQ	0.702 ± 0.038
SPSTPQALSNFS	0.748 ± 0.015
SPTIFLPLFLTS	0.415 ± 0.014
SRARIRLPRILS	0.71 ± 0.0083
SSLTFTFAILLY	0.188 ± 0.011
STLPACNCLKLL	0.7607 ± 0.0055
STNMDNRIRTLA	0.714 ± 0.012
SVIVSSFFLWVF	0.454 ± 0.035
SVLVWFLVFLVW	0.235 ± 0.02
SVVYCRMRVHFV	0.487 ± 0.046
SWGEQDRLTGYI	0.77 ± 0.02
SWMFKLCIQWNV	0.567 ± 0.023
SWSLRLSTIFSV	0.664 ± 0.016
SYFASLLDLFTA	0.77 ± 0.0079
TDSSWEVSLMVG	0.747 ± 0.036
TDVLLLQLLISV	0.228 ± 0.059
TGPLVHLLCCCV	0.417 ± 0.011
TKKGQTRPSRTD	0.6989 ± 0.0024
TLKRCFRWCRTT	0.71 ± 0.05
TLSRTPVSPSAP	0.738 ± 0.017
